The results in this text go back to publication PMC4036514, “Requirement for A-type cyclin-dependent kinase and cyclins for the terminal division in the stomatal lineage of Arabidopsis”.

One data set deals with T1, His-FLP (FOUR LIPS) (Arabidopsis thaliana, UniProt Q94FL6 1-436).
T1 sequence: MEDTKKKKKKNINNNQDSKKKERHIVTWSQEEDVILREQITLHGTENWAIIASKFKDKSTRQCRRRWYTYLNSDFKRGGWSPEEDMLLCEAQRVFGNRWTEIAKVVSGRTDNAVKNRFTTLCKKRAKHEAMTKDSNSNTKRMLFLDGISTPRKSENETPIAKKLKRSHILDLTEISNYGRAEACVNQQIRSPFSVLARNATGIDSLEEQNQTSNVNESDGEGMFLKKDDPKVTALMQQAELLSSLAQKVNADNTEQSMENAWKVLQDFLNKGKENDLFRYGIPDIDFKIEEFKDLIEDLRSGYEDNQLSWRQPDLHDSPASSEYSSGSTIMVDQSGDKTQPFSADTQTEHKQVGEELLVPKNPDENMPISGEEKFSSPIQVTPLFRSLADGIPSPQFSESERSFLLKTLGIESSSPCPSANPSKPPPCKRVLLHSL
Description: EMSA; EMSA: 1x LightShift binding buffer, 2.5% glycerol, 50 mM KCl, 5 mM MgCl2, 0.05% NP-40, 10 mM EDTA, room temperature 20 min; pH not stated. Particulars: protein: recombinant; tags: His (pET-28a); label: 3' biotin; blunt.

Another data set concerns the target T2, His-MYB88 (Arabidopsis thaliana, UniProt F4IRB4 1-484).
T2 sequence: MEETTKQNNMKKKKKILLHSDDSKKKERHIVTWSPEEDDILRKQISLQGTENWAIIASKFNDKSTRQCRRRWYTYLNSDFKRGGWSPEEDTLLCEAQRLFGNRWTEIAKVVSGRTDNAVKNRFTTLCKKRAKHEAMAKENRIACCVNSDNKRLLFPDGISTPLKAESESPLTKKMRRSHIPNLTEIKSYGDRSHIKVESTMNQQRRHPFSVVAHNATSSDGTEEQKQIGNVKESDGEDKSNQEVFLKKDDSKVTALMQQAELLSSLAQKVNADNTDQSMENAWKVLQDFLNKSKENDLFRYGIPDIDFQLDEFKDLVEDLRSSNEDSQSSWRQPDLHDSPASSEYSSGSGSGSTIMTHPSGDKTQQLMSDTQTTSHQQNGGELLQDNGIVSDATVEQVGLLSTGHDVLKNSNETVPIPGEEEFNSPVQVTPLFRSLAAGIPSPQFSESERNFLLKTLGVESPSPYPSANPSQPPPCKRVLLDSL
Described as above. To be noted: protein: recombinant; tags: His (pET-28a); label: 3' biotin; blunt.

B1: pCDKA-C+D (elements C and D) (dsDNA)
DNA 1: TTACTCTCAATTAGTCAATCCCCTTCCCTAGTCCTCCTCTCTTCAAGCTTTTCACAGAA
DNA 2: TTCTGTGAAAAGCTTGAAGAGAGGAGGACTAGGGAAGGGGATTGACTAATTGAGAGTAA
For the molecule B1, the binding result in the data set with His-FLP (FOUR LIPS) and with His-MYB88 was “binds” throughout.

B2: pCDKA-A (element A) (dsDNA)
DNA 1: TAATAAATAAAATTGTACCAAATTAATGCGGTTAGGTAAATTCAATTTATTGGAAATTA
DNA 2: TAATTTCCAATAAATTGAATTTACCTAACCGCATTAATTTGGTACAATTTTATTTATTA
On to B2, for which the binding result in the data set with His-FLP (FOUR LIPS) and with His-MYB88 was “binds” in each case.

B3: pCDKA-B (element B) (dsDNA)
DNA 1: CTTGACACAAAAAAAAAAAAAGAAGAAAGAAAAAACCCTTACTCTCAATTAGTCAATCC
DNA 2: GGATTGACTAATTGAGAGTAAGGGTTTTTTCTTTCTTCTTTTTTTTTTTTTGTGTCAAG
B3: the binding result in the data set with His-FLP (FOUR LIPS) and with His-MYB88 was “binds” throughout.
